Measured values published in article PMC7113243.

Target: GST-tagged ID5 (human) (UniProt Q92793)
Assay: BLI; GST-tagged ID5 immobilised on the biosensors; IQGAP1-F 0.1 to 19 uM, twelve concentrations; association and dissociation 60 s each; RT; double referenced against buffer and GST; steady state fitted 1:1

Kd: 400 nM
Substance: IQGAP1-F, His-tagged IQGAP1 construct (residues 286-592 of IQGAP1) (from UniProt P46940 286-592) (domain or fragment)
